Reference: paper PMC9723616

T1: FemX (UniProt Q9EY50 1-336)
T1 sequence: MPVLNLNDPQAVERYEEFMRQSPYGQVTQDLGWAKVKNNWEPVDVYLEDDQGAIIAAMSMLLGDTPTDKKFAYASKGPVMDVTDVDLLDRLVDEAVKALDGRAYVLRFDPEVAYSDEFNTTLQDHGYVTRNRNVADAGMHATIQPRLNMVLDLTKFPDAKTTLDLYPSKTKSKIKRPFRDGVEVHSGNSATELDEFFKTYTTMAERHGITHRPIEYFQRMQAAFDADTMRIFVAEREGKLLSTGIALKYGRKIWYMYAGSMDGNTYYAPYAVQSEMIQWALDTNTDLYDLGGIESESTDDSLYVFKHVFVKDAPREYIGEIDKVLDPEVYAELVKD

B1: compound 20 (2'F-ANA stem peptidyl-helix, 24 nt) (XNA)
RNA: GGGGCCUUAGCUCAGGCUCCACCA
modifications: 2'F-ANA in stem (14 F); dC at penultimate position (pdCpA); 2'-azido-2'-deoxy A76 joined by triazole to UDP-MurNAc-pentapeptide
B2: compound 17 (2'F-RNA stem peptidyl-helix, 24 nt) (XNA)
RNA: GGGGCCUUAGCUCAGGCUCCACCA
modifications: 2'F-RNA in stem (14 F); dC at penultimate position (pdCpA); 2'-azido-2'-deoxy A76 joined by triazole to UDP-MurNAc-pentapeptide

Biological target: T1, FemX
Experiment: competition

Row | Binder | Ki
1 | B1 | 221 ± 10 nM
2 | B2 | 0.397 ± 0.107 nM
